The target of assay [1] is CCR7 (human) (UniProt P32248). Description: cell-based or functional assay.
Assay [2] concerns the target hCXCR1 (human) (UniProt P25024). Description: cell-based or functional assay.
Assay [3] concerns the target CCR1, 3 and 5-expressing cells (chemokine receptor-expressing cells) (human). Description: blood of a healthy donor passed through a column of biotinylated RANTES coupled streptavidin matrix; flow cytometry before and after.

Sequence of hCXCR1 (human) (P25024 whole entry): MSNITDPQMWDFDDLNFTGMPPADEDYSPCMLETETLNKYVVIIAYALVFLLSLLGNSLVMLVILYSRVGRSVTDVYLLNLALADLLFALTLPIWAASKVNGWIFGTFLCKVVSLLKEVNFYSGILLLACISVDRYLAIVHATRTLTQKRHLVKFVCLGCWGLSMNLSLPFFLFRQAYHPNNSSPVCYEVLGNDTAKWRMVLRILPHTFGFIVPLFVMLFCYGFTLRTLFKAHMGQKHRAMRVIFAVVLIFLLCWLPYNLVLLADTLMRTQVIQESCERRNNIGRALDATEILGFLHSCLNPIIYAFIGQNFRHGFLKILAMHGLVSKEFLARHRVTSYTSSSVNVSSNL
Sequence of biotinRANTES (CCL5), RANTES derivatised at Lys(67) with Biotin (P13501 other isoform, or with tags, fused parts or gaps): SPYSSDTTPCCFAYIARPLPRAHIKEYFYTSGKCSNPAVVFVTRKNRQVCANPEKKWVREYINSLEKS
Sequence of CCR7 (human) (P32248 25-378): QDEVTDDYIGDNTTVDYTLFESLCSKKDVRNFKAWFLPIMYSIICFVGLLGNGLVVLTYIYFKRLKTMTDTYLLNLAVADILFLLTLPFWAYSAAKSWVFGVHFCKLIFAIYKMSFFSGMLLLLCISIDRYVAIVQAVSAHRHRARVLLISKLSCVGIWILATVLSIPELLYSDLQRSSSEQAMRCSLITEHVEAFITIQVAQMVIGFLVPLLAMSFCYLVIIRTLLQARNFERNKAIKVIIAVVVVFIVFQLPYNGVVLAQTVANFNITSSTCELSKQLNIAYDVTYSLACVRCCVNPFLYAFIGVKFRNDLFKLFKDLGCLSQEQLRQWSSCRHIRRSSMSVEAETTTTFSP

Take “recombinant native MIP-3β (from UniProt Q99731 22-98) (ligand)”: the EC50, agonist activity in an Aequorin assay in assay [1] is 1.6 nM. Take “biotinIL-8 (6-78), IL-8 (6-78) derivatised at Lys(78) with PEG-Biotin (from UniProt P10145 28-99) (ligand)”: in assay [2], the EC50, agonist activity in an Aequorin assay is 6.1 nM. With “recombinant native IL-8 (from UniProt P10145 28-99) (ligand)”, the EC50, agonist activity in an Aequorin assay in assay [2] was 4.2 nM. In turn, “biotinRANTES (CCL5), RANTES derivatised at Lys(67) with Biotin (from UniProt P13501 24-91) (ligand)” registered a reduction of chemokine receptor-expressing cells by the column in assay [3] of 20%.

For the origin of these results see patent US20180038858A1.
